From IntAct's records for PubMed 17428920

B1: Insulin-induced gene 2 protein (Homo sapiens), Q9Y5U4 (parent)
chain: MAEGETESPGPKKCGPYISSVTSQSVNLMIRGVVLFFIGVFLALVLNLLQIQRNVTLFPPDVIASIFSSAWWVPPCCGTASAVIGLLYPCIDRHLGEPHKFKREWSSVMRCVAVFVGINHASAKVDFDNNIQLSLTLAALSIGLWWTFDRSRSGFGLGVGIAFLATVVTQLLVYNGVYQYTSPDFLYVRSWLPCIFFAGGITMGNIGRQLAMYECKVIAEKSHQE
partner: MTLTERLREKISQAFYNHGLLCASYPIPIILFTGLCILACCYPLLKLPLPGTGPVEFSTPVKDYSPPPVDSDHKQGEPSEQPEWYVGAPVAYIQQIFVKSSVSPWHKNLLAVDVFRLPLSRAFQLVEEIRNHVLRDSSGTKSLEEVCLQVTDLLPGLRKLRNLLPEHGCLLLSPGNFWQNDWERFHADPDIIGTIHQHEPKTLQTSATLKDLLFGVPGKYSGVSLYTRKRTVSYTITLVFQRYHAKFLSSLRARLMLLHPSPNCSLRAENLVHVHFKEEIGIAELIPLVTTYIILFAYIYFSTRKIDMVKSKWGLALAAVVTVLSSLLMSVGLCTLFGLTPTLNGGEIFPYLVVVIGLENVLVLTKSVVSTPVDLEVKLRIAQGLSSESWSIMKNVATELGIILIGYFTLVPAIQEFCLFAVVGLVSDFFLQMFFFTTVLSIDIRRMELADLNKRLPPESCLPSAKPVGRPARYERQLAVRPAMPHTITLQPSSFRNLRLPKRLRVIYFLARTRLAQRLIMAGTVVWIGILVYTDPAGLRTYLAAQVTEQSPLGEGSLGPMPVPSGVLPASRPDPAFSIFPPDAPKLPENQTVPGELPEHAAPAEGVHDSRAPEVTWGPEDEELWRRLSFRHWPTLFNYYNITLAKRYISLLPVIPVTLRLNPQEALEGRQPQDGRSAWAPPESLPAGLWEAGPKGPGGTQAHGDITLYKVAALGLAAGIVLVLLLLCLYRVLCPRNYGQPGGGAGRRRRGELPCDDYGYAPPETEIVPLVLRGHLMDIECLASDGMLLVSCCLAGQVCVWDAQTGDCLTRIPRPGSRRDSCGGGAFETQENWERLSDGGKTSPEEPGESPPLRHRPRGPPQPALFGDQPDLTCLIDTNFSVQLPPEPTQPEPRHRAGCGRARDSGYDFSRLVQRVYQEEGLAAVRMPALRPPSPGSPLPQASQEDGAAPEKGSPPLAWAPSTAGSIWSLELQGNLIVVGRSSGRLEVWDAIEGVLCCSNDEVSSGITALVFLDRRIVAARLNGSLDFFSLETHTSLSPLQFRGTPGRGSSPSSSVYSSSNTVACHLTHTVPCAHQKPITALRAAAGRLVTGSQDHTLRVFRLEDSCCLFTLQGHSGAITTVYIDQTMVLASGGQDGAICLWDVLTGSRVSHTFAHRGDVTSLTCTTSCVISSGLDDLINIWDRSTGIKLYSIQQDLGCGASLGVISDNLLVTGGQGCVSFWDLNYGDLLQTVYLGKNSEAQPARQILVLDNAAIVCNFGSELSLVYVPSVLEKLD

Variants of: B1
Conditions: with scap_crigr SCAP

effect of a mutation on the interaction | Variant
decreasing interaction strength | MAEGETESPGPKKCGPYISSVTSQSVNLMIRGVVLFFIGVFLALVLNLLQIQRNVTLFPPDVIASIFSSAWWVPPCCGTASAVIGLLYPCIDRHLGEPHKFKREWSSVMRCVAVFVGINHASAKVDFDNNIQLSLALAALSIGLWWTFDRSRSGFGLGVGIAFLATVVTQLLVYNGVYQYTSPDFLYVRSWLPCIFFAGGITMGNIGRQLAMYECKVIAEKSHQE [T136A]
disrupting interaction strength | MAEGETESPGPKKCGPYISSVTSQSVNLMIRGVVLFFIGVFLALVLNLLQIQRNVTLFPPDVIASIFSSAWWVPPCCGTASAVIGLLYPCIDRHLGEPHKFKREWSSVMRCVAVAVGINHASAKVDFDNNIQLSLTLAALSIGLWWTFDRSRSGFGLGVGIAFLATVVTQLLVYNGVYQYTSPDFLYVRSWLPCIFFAGGITMGNIGRQLAMYECKVIAEKSHQE [F115A]
